Where a chain is given by its changes, count along the chain named. Read-outs that look alike come from different tables or passages of the source.
T1: cynomolgus tissue factor (cynomolgus TF, Sino Bio #90885-C08H) (cynomolgus monkey, UniProt P13726 33-251 (human entry))
T1 construct: bought recombinant antigen; also called cyno TF
T1 chain: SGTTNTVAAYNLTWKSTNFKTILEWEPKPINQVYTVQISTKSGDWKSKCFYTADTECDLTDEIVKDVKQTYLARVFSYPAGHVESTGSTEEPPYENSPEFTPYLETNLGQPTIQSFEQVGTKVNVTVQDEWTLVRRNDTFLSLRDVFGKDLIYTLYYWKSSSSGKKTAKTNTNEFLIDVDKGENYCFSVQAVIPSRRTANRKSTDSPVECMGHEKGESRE

T2: cynomolgus tissue factor on HEK293T-cynoTF cells (cynomolgus monkey, UniProt P13726 33-294 (human entry))
T2 construct: stably transfected HEK293T cells
T2 chain: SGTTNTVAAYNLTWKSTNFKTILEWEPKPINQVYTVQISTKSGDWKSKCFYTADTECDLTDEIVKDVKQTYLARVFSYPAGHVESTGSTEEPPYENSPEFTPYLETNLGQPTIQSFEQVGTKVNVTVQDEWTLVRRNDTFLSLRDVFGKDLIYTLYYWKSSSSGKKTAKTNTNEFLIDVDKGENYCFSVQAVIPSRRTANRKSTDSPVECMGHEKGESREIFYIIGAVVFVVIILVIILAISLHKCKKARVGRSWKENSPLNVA

B1: 2842-B01 HC1/LC1 (antibody, V domains shown)
VH: QVQVVESGGGLVKPGGSLRLSCAASGFSISSYDMSWIRQAPGKGLEWIGIIGSNGRTYYADSVKGRFTISRNTNENTVYLQMNSLRAEDTAVYYCARGLYDGTGNIWGQGTLVTVSS
VL: DLQMTQSPSSLSASVGDRVTITCRASQSVYGNNWLSWYQQKPGKAPKLLIYGASKLASGVPSRFSGSGSGTQFTLTISSLQPEDFATYYCQGTYYSGDWYFAFGQGTKVEIK
notes: humanized rabbit antibody, variable regions fused to human IGHG1 and IGKC
B2: mAb 47: aTF_2842-B01_HC3_Y180/F404TAG; aTF_2842-B01_LC1 (antibody, IgG1, V domains shown)
VH: B1 VH with Q1E, V4L, K13Q, I37V, A60P, N72D, T73N, N74S, E75K, Y79T
VL: DLQMTQSPSSLSASVGDRVTITCRASQSVYGNNWLSWYQQKPGKAPKLLIYGASKLASGVPSRFSGSGSGTQFTLTISSLQPEDFATYYCQGTYYSGDWYFAFGQGTKVEIKR
modifications: non-natural amino acid (pAMF) at TAG sites Y180 and F404 (EU), * in the sequence
notes: unconjugated full-length IgG1/kappa; also called 2842-B01 HC3/LC1
B3: mAb 48: aTF_2842-B01_HC1_Y180/F404TAG; aTF_2842-B01_LC3 (antibody, IgG1, V domains shown)
VH: B1 VH
VL: B2 VL with L2I, R24Q, Q72D, Q105G
modifications: non-natural amino acid (pAMF) at TAG sites Y180 and F404 (EU), * in the sequence
notes: unconjugated full-length IgG1/kappa; also called 2842-B01 HC1/LC3
B4: SRP2799-B03 (antibody, IgG1, V domains shown)
VH: EVQLVESGGGLVQPGGSLRLSCAASGFNISDYWIHWVRQAPGKGLEWVGFIDPYNGYTNYADSVKGRFTISADTSKNTAYLQMNSLRAEDTAVYYCARGYGSWPDYLDYWGQGTLVTVSS
VL: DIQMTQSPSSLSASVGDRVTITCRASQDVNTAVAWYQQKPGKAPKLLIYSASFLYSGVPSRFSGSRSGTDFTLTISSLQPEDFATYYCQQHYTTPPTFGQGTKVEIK
notes: also called SRP2799-B03 (parent)
B5: SRP2799-B06 (antibody, IgG1, V domains shown)
VH: EVQLVESGGGLVQPGGSLRLSCAASGFNISDYNIHWVRQAPGKGLEWVGYIDPSNGYTYYADSVKGRFTISADTSKNTAYLQMNSLRAEDTAVYYCARDDQSVSSPFDYWGQGTLVTVSS
VL: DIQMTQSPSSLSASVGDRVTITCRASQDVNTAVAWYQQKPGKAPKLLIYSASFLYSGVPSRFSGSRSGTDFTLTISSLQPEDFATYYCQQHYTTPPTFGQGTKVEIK
notes: also called SRP2799-B06 (parent)
B6: mAb 46: aTF_2900-H09_HC_Y180/F404TAG_SerOpt; Trastuzumab LC SerOpt (antibody, human IgG1, kappa, V domains shown)
VH: B5 VH with N28T, N33V, V103I, F107L
VL: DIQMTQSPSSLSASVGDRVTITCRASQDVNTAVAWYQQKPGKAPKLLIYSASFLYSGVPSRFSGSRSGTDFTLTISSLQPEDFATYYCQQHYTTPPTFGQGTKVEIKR
modifications: non-natural amino acid (pAMF) at TAG sites Y180 and F404 (EU), * in the sequence
notes: unconjugated full-length IgG1/kappa

How the values were obtained:
[1] = molecular target: T3, tissue factor reagent of the Tissue Factor Activity Assay Kit (Abcam #ab108906) (UniProt P13726 33-295, limits assumed); assay: cell-based or functional assay
[2] = molecular target: T4, human tissue factor (human TF, Lake Pharma) (human, UniProt P13726 33-251, limits assumed); assay: Biacore SPR, single-point off-rate (100 nM antigen), antibody captured on anti-Fc
T4 construct: bought recombinant antigen; also called CD142
Procedure: (§1) Anti-Fc polyclonal antibodies were immobilized onto a CM4 chip (Cytiva #BR100534) using amine coupling chemistry (Human Antibody Capture Kit, Cytiva #BR100839). The immobilization steps were carried out at a flow rate of 25 μL/min in 1×HBS-EP+buffer (Cytiva #BR100669). The sensor surfaces were activated for 7 min with a mixture of N-hydroxysuccinimide (NHS, 0.05 M) and 1-ethyl-3-(3-dimethylaminopropyl)-carbodiimide (EDC, 0.2 M). The anti-Fc polyclonal antibodies were injected over all 4 flow cells at a concentration of 25 μg/mL in 10 mM sodium acetate, pH 4.5, for 7 min. Ethanolamine (1 M, pH 8.5) was injected for 7 min to block any remaining activated groups.
(§2) Off-rate and kinetic binding experiments were performed at 25° C. using 1×HBS-EP+buffer. Antibodies were injected over the anti-Fc surface at a concentration of 3 μg/mL for 12 seconds at a flow rate of 10 μL/min on flow cells 2, 3 and 4, followed by a buffer wash for 30 seconds at the same flow rate. Single point off-rate analysis was carried out using an antigen concentration of 100 nM. […] After capturing ligand (antibody) on the anti-Fc surface, the analyte (human TF, Lake Pharma; cynomolgus TF, Sino Bio #90885-C08H; mouse TF, R&D Systems #3178-PA) was bound for 180 seconds, followed by a 420 second dissociation phase at a flow rate of […]. Between each ligand capture and analyte binding cycle, regeneration was carried out using 2 injections of 10 mM glycine pH 2.0 for 30 seconds at 30 μL/min, followed by a 30 second buffer wash step.

[3] = molecular target: T1, cynomolgus tissue factor (cynomolgus …); assay: as above
Procedure: as §1, §2

[4] = molecular target: T2, cynomolgus tissue factor on …; assay: flow cytometry on HEK293T-cynoTF cells, one-site fit of MFI
Excerpt: (§3) HEK293T, BxPC3 cells (TF positive) and NCI-H1703 (TF negative) cells were obtained from ATCC (American Type Culture Collection) and maintained in DMEM: F12 (1:1), high glucose (Corning) supplemented with 10% heat-inactivated fetal bovine serum (ThermoScientific), 1× Penicillin/Streptomycin (Corning) and 2 mmol glutamax (Thermo Fisher Scientific). To generate cells that stably expressing human tissue factor (HEK293T-humanTF) or cynomolgus tissue factor (HEK293T-cynoTF), HEK293T cells were transfected with plasmid vectors that contain the corresponding protein sequence and stable clones were selected with puromycin.
(§4) For a fluorescence-activated cell sorting (FACS) cell-binding assay, cells were collected by Accutase and counted by the Vi-CELL Cell Viability Analyzersharvested and, then re-suspended in FACS buffer (DPBS buffer supplemented with 1% bovine serum albumin). A total of 200,000 cells in 100 μL were incubated on ice with 100 μL of anti-TF antibodies in each well of a 96-well plate. Cells were washed twice with ice-cold FACS buffer and then incubated on ice for 60 mins with 5 μg/mL Alexa 647-labeled donkey anti-human Fc antibody (Jackson ImmunoResearch). Unstained cells and cells stained with secondary antibody alone were used as controls. Cells were washed twice with FACS buffer and analyzed using a BD FACS Canto system. Geometric mean fluorescence intensities (MFI) were fitted using non-linear regression analysis with one site specific binding equation on GraphPad Prism (GraphPad Software; La Jolla, CA).

[5] = molecular target: T5, human tissue factor on cells (human, UniProt P13726 33-295); assay: flow cytometry on HEK293T-humanTF cells, one-site fit of MFI
T5 construct: cell-surface TF, transfected (HEK293T-humanTF) or endogenous (tumour lines, keratinocytes); the cell line is named under assay; also called HEK293T-humanTF; TF on BxPC3, primary human keratinocytes, NCI-H292, HCC1954, NCI-H1975
Excerpt: as §3, §4

[6] = molecular target: T4, human tissue factor (human TF, Lake …); assay: Biacore SPR kinetics, antibody captured on anti-Fc, 1:1 Langmuir fit
Procedure: as §1, §2
(§5) The data were fit with the Biacore T200 Evaluation software, using a 1:1 Langmuir binding model. KD (affinity, nM) was determined as a ratio of the kinetic rate constants calculated from the fits of the association and dissociation phases.

[7] = molecular target: T1, cynomolgus tissue factor (cynomolgus …); assay: as above
Procedure: as §1, §2, §5

[8] = molecular target: T3, tissue factor reagent of the Tissue …; assay: cell-based or functional assay; remark: listed apart in the source
[9] = molecular target: T5, human tissue factor on cells; assay: flow cytometry on BxPC3 cells (TF positive), one-site fit of MFI
Excerpt: as §3, §4

| Binder | FX conversion (% inhibition), 1000 nM antibody [1] [%] | koff [2] [s⁻¹] | koff [3] [s⁻¹] | Bmax (MFI) [4] [MFI] | Kd [4] [nM] | Bmax (MFI) [5] [MFI] | Kd [5] [nM] | Kd [6] [nM] | koff [6] [s⁻¹] | kon [6] [M⁻¹ s⁻¹] | Kd [7] [nM] | koff [7] [s⁻¹] | kon [7] [M⁻¹ s⁻¹] | FX conversion (% inhibition), 1000 nM antibody [8] [%] | Bmax (MFI) [9] [MFI] | Kd [9] [nM] |
| --- | --- | --- | --- | --- | --- | --- | --- | --- | --- | --- | --- | --- | --- | --- | --- | --- |
| B1 | -0.45 | 0.000727 | 0.00352 | – | – | – | – | – | – | – | – | – | – | – | – | – |
| B2 | – | – | – | 501000 | 3.2 | 351000 | 3.3 | 7.81 | 0.000422 | 54000 | 20.1 | 0.00166 | 82700 | – | – | – |
| B3 | – | – | – | 486000 | 3.4 | 318000 | 2.3 | 17.4 | 0.00124 | 71200 | 60.7 | 0.00735 | 121000 | – | – | – |
| B4 | – | 0.00415 | 0.00169 | – | – | – | – | – | – | – | – | – | – | 2.41 | 45400 | 4.7 |
| B5 | – | 0.00827 | 0.00166 | – | – | – | – | – | – | – | – | – | – | -1.01 | 46300 | 4.1 |
| B6 | – | – | – | 483000 | 38 | 300000 | 0.93 | 6.24 | 0.00226 | 362000 | 41.6 | 0.00681 | 164000 | – | – | – |

Reference: patent US20250122306A1 (SUTRO BIOPHARMA, published 2025)
